From the DeepSol protein solubility set

Experiment: soluble on expression in E. coli; label from the status in PepcDB or PDB records

Row | Sequence | soluble on expression in E. coli
1 | APGAGPGVRRRQRSLEEIPRLGQLRFFFQLFVQGYALQLHQLQVLYKAKYGPMWMSYLGPQMHVNLASAPLLEQVMRQEGKYPVRNDMELWKEHRDQHDLTYGPFTTEGHHWYQLRQALNQRLLKPAEAALYTDAFNEVIDDFMTRLDQLRAESASGNQVSDMAQLFYYFALEAICYILFEKRIGCLQRSIPEDTVTFVRSIGLMFQNSLYATFLPKWTRPVLPFWKRYLDGWNAIFSFGKKLIDEKLEDMEAQLQAAGPDGIQVSGYLHFLLASGQLSPREAMGSLPELLMAGVDTTSNTLTWALYHLSKDPEIQEALHEEVVGVVPAGQVPQHKDFAHMPLLKAVLKETLRLYPVVPTNSRIIEKEIEVDGFLFPKNTQFVFCHYVVSRDPTAFSEPESFQPHRWLRNSQPATPRIQHPFGSVPFGYGVRACLGRRIAELEMQLLLARLIQKYKVVLAPETGELKSVARIVLVPNKKVGLQFLQRQC | not soluble
2 | MKSSVEKLSETRVKLNVEVPFEELKPEIDQAYKALAQQITIPGFRRGKAPRQLIDARIGRGAVLEQVINDMLPTRYQQVVEENELVVLGQPHIDITKLEDNEVVEFTAEVDVRPEITVPDFSAFAVEVPALKSNDEAIDAQIDKLRERFGELKDTKRKLKTDDFAIIDIEAAIDGEKLEEATTEGMSYQVGAGDLIDGLDTALRGLKAGESAEFTTTLKAGEHEGKEAAVTVTVQQTKERKLPELDEEFVQTASEFDTVEELRESIAEQVAEQAKAEQATAIRDEVLKAALAEATFELPEGVVEDQIHAQLHQLLNQVGGDEAALNAALEAQGTSREQFDADNRKNSEEAVRTQLFLDALAEQEQPEVSQQELTDHILFTAQSYGMDPNQFITQLQQSGQIGNLFSDVRRGKALAAAICRVSVKDDEGKAVDPSEYFGEEEESAEESE | soluble
3 | MAHHHHHHMREKTTSAATPMRCRKELAATLTRTRNSPRTPVTFELATERGLHNFSRRGPRVRAKSSIAVHAATASPLSLLEQTLWTEIEQLNAATNRLRERILEVKREFSADAIAAVTGGEPLPVEARTGGLFRNPPKQRGQNSKDEPPYAVTFTPSHSQKKAANVRLQFTSPRKTPMKENDSSVLTSLAMFEYTPQNDDHREGARPTENRNVLQELKRDETFETGTPVHLSEAATMGGPFVVDLQKSDHGAANNTAEKPTELSTSVDSARESAKHLLLQANMMGVEQDLNHYMSDLLAIQRDTLDAQKRGLIDPNDSSVRELRLGIRDELNACRARILTLESLQTSLSAGVATKKTIS | not soluble
4 | MGSDKIHHHHHHMQLLGPTSNTFISQRLRLHYVDWGNADKPPLLLVHGGRDHCRSWDWTAEALREDWHIIALDHRGHGDSQWTQDGNYRTMDLVYDVAQLIHQLDLAPVTIVSHSWGANTSLRYAGLFPENVRKIVAIEGLFPTPEREALMKDVPFARRVREFIVEKRKAAGRLPRRYATLEDAYARMKGENPYLTDAQARHLTLHGINRNEDGTFSWKFDPHLNVDGAPYDISTDQRNELWGAITCPTLLLNGADSWAGNPDRNGMAQHFRNAQVVEFENAGHWLHHDQFDRFIATLRDFL | not soluble
5 | GMQGAGRLMQPRPDSAFVHDVRVTWGDCDPAKIAYTGHLPRFALEAIDAWWSEYHGPGGWYHLELDTNVGTPFVRLEMDFKSPVTPRHILKCHTWPTRLGTKSITFRVDGVQDGVTCFVGAFTCVFTIADQFKSQPAPDHLRALIEPHIPA | soluble
6 | MGSDKIHHHHHHMKKLLNTLYVTRQETYVHKERDTIVINSAGEKLAQFPALTISNILCFGQVSVSPPMMGYCGENGIGLVFYTEYGRFLARMIGKQTGNVLLRRTQYRLADDPEKANAIARVMVGAKIANARTVLMREIRNHGEHANISRAVEQLGYSLKSCQFSQSVPQTMGIEGDAAATYFSVFNGLIRGSRFQFNGRIRRPATDPVNALLSFIYSLITQECVSALMGVGLDPYVGFLHQDRPGRPSLALDLLEEFRASWADRFVLTLLNRRQLSPQAFVTEASGAVRLTDDTRKQVLVAFQERKQEEVVHPYLQEKVPYGLLPHCQALLLARHLRGDMEFYTPYLIK | not soluble
7 | GNNFNWTSVLNMTHNKNKIVSLDGKLDQSIEGSWFIHKVGLPYSTFYVKEYAGVDPQTGKALYYMNTQDANGNYDRTVTTDASAAQAIPYKSVDPKISGGFTNIVNYKWFDLALTLTYSLGGYSFDKTGTYNETDGAKEQNYNLPIYELDRWQKPGDVTDVPRFVLGQAAGPQNSSRYVHSTDHLRVKNLTLGFTLPDQWLTKLGVSKARLYFSGSNLLTWAKWDQYDPEVPVSGEVFCETPPMRTYSFGIEVSF | not soluble
8 | MGSDKIHHHHHHMYLLVDVGNTHSVFSITEDGKTFRRWRLSTGVFQTEDELFSHLHPLLGDAMREIKGIGVASVVPTQNTVIERFSQKYFHISPIWVKAKNGCVKWNVKNPSEVGADRVANVVAFVKEYGKNGIIIDMGTATTVDLVVNGSYEGGAILPGFFMMVHSLFRGTAKLPLVEVKPADFVVGKDTEENIRLGVVNGSVYALEGIIGRIKEVYGDLPVVLTGGQSKIVKDMIKHEIFDEDLTIKGVYHFCFGD | not soluble
9 | MARFNAAFTRIKIMFSRIRGLISCQSNTQTIAPTLSPPSSGHVSFAGIDYPLLPLNHQTPLVFQWFERNPDRFGQNEIPIINTQKNPYLNNIINAAIIEKERIIGIFVDGDFSKGQRKALGKLEQNYRNIKVIYNSDLNYSMYDKKLTTIYLENITKLEAQSASERDEVLLNGVKKSLEDVLKNNPEETLISSHNKDKGHLWFDFYRNLFLLKGSDAFLEAGKPGCHHLQPGGGCIYLDADMLLTDKLGTLYLPDGIAIHVSRKDNHVSLENGIIAVNRSEHPALIKGLEIMHSKPYGDPYNDWLSKGLRHYFDGSHIQDYDAFCDFIEFKHENIIMNTSSLTASSWR | not soluble
10 | GMTQPHQIILLAHGSSDARWCETFEKLAEPTVESIENAAIAYMELAEPSLDTIVNRAKGQGVEQFTVVPLFLAAGRHLRKDVPAMIERLEAEHGVTIRLAEPIGKNPRLGLAIRDVVKEELERSEH | soluble
11 | MAHHHHHHMCEKDDITVNEEILQKAQEFQVENEKDIKMKKLKPITEGLLKPEVDLLQISERGSRGRVKICNVLNVPRSEKEYNNNNSDKVENKYIGKIITVCGWSKAIRKQGGGRFCFVNLNDGSCHLNLQIVVNQCIENYEKLLKCGAGCCFRFTGELIISPVQNDNNKKGLLKENVELALNNNDIHNFEIYGENLDPQKYPLSKKNHGKEFLREVAHLRPRSYFISSVIRIRNSLSIATHLFFQSRGFLYIHTPLITTSDCEGGGEMFTVTTLLNENGDIRSIPRINLKNKKKEKREDILNEKNGKKDHMNDSLNNNTCNNNNNNGNSSSSNIVSSPQYEDNYLIDYKKDFFSKQAFLTVSGQLSLENLCSSMGDVYTFGPTFRAENSHTSRHLAEFWMIEPEIAFADLYDNMELAEAYIKYCIDYVLNNNFHDIYYFEENVETNLIKRLKNILNEDFAKITYTNAIEILQNYSDSFEVKVEWGMDLQSEHERFIAEKIFKKPVIVYNYPKDLKAFYMKLNEDNKTVAAMDVLVPKIGEVIGGSQREDNLERLDKMIKEKKLNIDSYWWYRQLRQYGSHPHAGFGLGFERLIMLVTGVDNIKDTIPFPRYPGHAEF | soluble
12 | FAKQKKESVISAISTVNPQELKVPSSNLTTALAGRMSGLIAFQTTGEPGKDNAQFFVRGATTFGYKKDPLILIDNIELSTDDLARLNVDDIAQFSIMKDATATALYGARGANGVILVTTKQGVAG | not soluble
13 | MANFEDFLTLDLRIGTVTHAEEFKEARVPAIKLEIDFGELGMKQSSAQITKRYNPEDLIGQQIVAVVNFPPKRVAGFKSEVLVLGGVPEAGDVVLLQPNMELPNGTKIS | not soluble
14 | DGTVVNYVGFQRDITERKEHERRLKALSESVQDLLQADTREEVAEIGVETARTVLGLEANTIHLYNEAERTLEPVAASDGIYDLLEDLPTFTPGDSIAWRVYESGDALAVDDVHADPDIYNPDTPIKSELYLPLGRHGILLAGSGTNAAFDQR | not soluble
